One experiment addresses T1, p34^cdc2 cell cycle regulatory kinase (Homo sapiens (Human), UniProt P06493). The experiment is described as follows: IC50 column of Table 1 (ELISA based competition, competitor plate-bound p107 30mer).
LCAKYIMAK [p107 9mer peptide 715FK] gave an IC50 above 100 µM.
Still for that read-out and setting: then LCAFYKMAK [p107 9mer peptide 717IK], with above 100 µM; and YIMAK [p107 N5mer peptide], with above 100 µM.
In the case of LCAAYIMAK [p107 9mer peptide 715FA], the IC50 was above 100 µM.

The target in a further experiment is T1, p34^cdc2 cell cycle regulatory kinase. The experiment is described as follows: IC50 column of Table 1 (ELISA based competition on p107 30mer-coated plate).
As to LCAKYIMAK [p107 9mer peptide 715FK], the binding result is reported as “no binding (tested: >100 µM)”.
Turning to LCAFYKMAK [p107 9mer peptide 717IK], the binding result is on record as “no binding (tested: >100 µM)”.
Consider YIMAK [p107 N5mer peptide], for which the binding result is listed as “no binding (tested: >100 µM)”.
Turning to LCAAYIMAK [p107 9mer peptide 715FA], the binding result was “no binding (tested: >100 µM)”.

The record behind these values is patent US5625031, “Peptide inhibitors of the p33^cdk2 and p34^cdc2 cell cycle regulatory kinases and human papillomavirus E7 oncoprotein” (Bristol-Myers Squibb Company, dated 1997).
